In PMC7367873, “Dissecting the sequence determinants for dephosphorylation by the catalytic subunits of phosphatases PP1 and PP2A” (Nature Communications, 2020):

B1: ERLIN1 (protein, UniProt O75477 1-348, looked up)
Erlin-1: MNMTQARVLVAAVVGLVAVLLYASIHKIEEGHLAVYYRGGALLTSPSGPGYHIMLPFITTFRSVQTTLQTDEVKNVPCGTSGGVMIYIDRIEVVNMLAPYAVFDIVRNYTADYDKTLIFNKIHHELNQFCSAHTLQEVYIELFDQIDENLKQALQKDLNLMAPGLTIQAVRVTKPKIPEAIRRNFELMEAEKTKLLIAAQKQKVVEKEAETERKKAVIEAEKIAQVAKIRFQQKVMEKETEKRISEIEDAAFLAREKAKADAEYYAAHKYATSNKHKLTPEYLELKKYQAIASNSKIYFGSNIPNMFVDSSCALKYSDIRTGRESSLPSKEALEPSGENVIQNKESTG
B2: NCBP1 (protein, UniProt Q09161 1-790, looked up)
Nuclear cap-binding protein …: MSRRRHSDENDGGQPHKRRKTSDANETEDHLESLICKVGEKSACSLESNLEGLAGVLEADLPNYKSKILRLLCTVARLLPEKLTIYTTLVGLLNARNYNFGGEFVEAMIRQLKESLKANNYNEAVYLVRFLSDLVNCHVIAAPSMVAMFENFVSVTQEEDVPQVRRDWYVYAFLSSLPWVGKELYEKKDAEMDRIFANTESYLKRRQKTHVPMLQVWTADKPHPQEEYLDCLWAQIQKLKKDRWQERHILRPYLAFDSILCEALQHNLPPFTPPPHTEDSVYPMPRVIFRMFDYTDDPEGPVMPGSHSVERFVIEENLHCIIKSHWKERKTCAAQLVSYPGKNKIPLNYHIVEVIFAELFQLPAPPHIDVMYTTLLIELCKLQPGSLPQVLAQATEMLYMRLDTMNTTCVDRFINWFSHHLSNFQFRWSWEDWSDCLSQDPESPKPKFVREVLEKCMRLSYHQRILDIVPPTFSALCPANPTCIYKYGDESSNSLPGHSVALCLAVAFKSKATNDEIFSILKDVPNPNQDDDDDEGFSFNPLKIEVFVQTLLHLAAKSFSHSFSALAKFHEVFKTLAESDEGKLHVLRVMFEVWRNHPQMIAVLVDKMIRTQIVDCAAVANWIFSSELSRDFTRLFVWEILHSTIRKMNKHVLKIQKELEEAKEKLARQHKRRSDDDDRSSDRKDGVLEEQIERLQEKVESAQSEQKNLFLVIFQRFIMILTEHLVRCETDGTSVLTPWYKNCIERLQQIFLQHHQIIQQYMVTLENLLFTAELDPHILAVFQQFCALQA
B3: FAM83B (protein, UniProt Q5T0W9 1-1011, looked up)
Protein FAM83B: METSSMLSSLNDECKSDNYIEPHYKEWYRVAIDILIEHGLEAYQEFLVQERVSDFLAEEEINYILKNVQKVAQSTAHGTDDSCDDTLSSGTYWPVESDVEAPNLDLGWPYVMPGLLGGTHIDLLFHPPRAHLLTIKETIRKMIKEARKVIALVMDIFTDVDIFKEIVEASTRGVSVYILLDESNFNHFLNMTEKQGCSVQRLRNIRVRTVKGQDYLSKTGAKFHGKMEQKFLLVDCQKVMYGSYSYMWSFEKAHLSMVQIITGQLVESFDEEFRTLYARSCVPSSFAQEESARVKHGKALWENGTYQHSVSSLASVSSQRNLFGRQDKIHKLDSSYFKNRGIYTLNEHDKYNIRSHGYKPHFVPNFNGPNAIRQFQPNQINENWKRHSYAGEQPETVPYLLLNRALNRTNNPPGNWKKPSDSLSVASSSREGYVSHHNTPAQSFANRLAQRKTTNLADRNSNVRRSFNGTDNHIRFLQQRMPTLEHTTKSFLRNWRIESYLNDHSEATPDSNGSALGDRFEGYDNPENLKANALYTHSRLRSSLVFKPTLPEQKEVNSCTTGSSNSTIIGSQGSETPKEVPDTPTNVQHLTDKPLPESIPKLPLQSEAPKMHTLQVPENHSVALNQTTNGHTESNNYIYKTLGVNKQTENLKNQQTENLLKRRSFPLFDNSKANLDPGNSKHYVYSTLTRNRVRQPEKPKEDLLKSSKSMHNVTHNLEEDEEEVTKRNSPSGTTTKSVSIAALLDVNKEESNKELASKKEVKGSPSFLKKGSQKLRSLLSLTPDKKENLSKNKAPAFYRLCSSSDTLVSEGEENQKPKKSDTKVDSSPRRKHSSSSNSQGSIHKSKEDVTVSPSQEINAPPDENKRTPSPGPVESKFLERAGDASAPRFNTEQIQYRDSREINAVVTPERRPTSSPRPTSSELLRSHSTDRRVYSRFEPFCKIESSIQPTSNMPNTSINRPEIKSATMGNSYGRSSPLLNYNTGVYRSYQPNENKFRGFMQKFGNFIHKNK
B4: PFKL (protein, UniProt P17858 2-780, looked up)
ATP-dependent …: AAVDLEKLRASGAGKAIGVLTSGGDAQGMNAAVRAVTRMGIYVGAKVFLIYEGYEGLVEGGENIKQANWLSVSNIIQLGGTIIGSARCKAFTTREGRRAAAYNLVQHGITNLCVIGGDGSLTGANIFRSEWGSLLEELVAEGKISETTARTYSHLNIAGLVGSIDNDFCGTDMTIGTDSALHRIMEVIDAITTTAQSHQRTFVLEVMGRHCGYLALVSALASGADWLFIPEAPPEDGWENFMCERLGETRSRGSRLNIIIIAEGAIDRNGKPISSSYVKDLVVQRLGFDTRVTVLGHVQRGGTPSAFDRILSSKMGMEAVMALLEATPDTPACVVTLSGNQSVRLPLMECVQMTKEVQKAMDDKRFDEATQLRGGSFENNWNIYKLLAHQKPPKEKSNFSLAILNVGAPAAGMNAAVRSAVRTGISHGHTVYVVHDGFEGLAKGQVQEVGWHDVAGWLGRGGSMLGTKRTLPKGQLESIVENIRIYGIHALLVVGGFEAYEGVLQLVEARGRYEELCIVMCVIPATISNNVPGTDFSLGSDTAVNAAMESCDRIKQSASGTKRRVFIVETMGGYCGYLATVTGIAVGADAAYVFEDPFNIHDLKVNVEHMTEKMKTDIQRGLVLRNEKCHDYYTTEFLYNLYSSEGKGVFDCRTNVLGHLQQGGAPTPFDRNYGTKLGVKAMLWLSEKLREVYRKGRVFANAPDSACVIGLKKKAVAFSPVTELKKDTDFEHRMPREQWWLSLRLMLKMLAQYRISMAAYVSGELEHVTRRTLSMDKGF
B5: RBM3 (protein, UniProt P98179 1-157, looked up)
RNA-binding protein 3: MSSEEGKLFVGGLNFNTDEQALEDHFSSFGPISEVVVVKDRETQRSRGFGFITFTNPEHASVAMRAMNGESLDGRQIRVDHAGKSARGTRGGGFGAHGRGRSYSRGGGDQGYGSGRYYDSRPGGYGYGYGRSRDYNGRNQGGYDRYSGGNYRDNYDN
B6: PRSS56 (protein, UniProt P0CW18 20-603, looked up)
Serine protease 56: HPLYTRLPPSALQVLSAQGTQALQAAQRSAQWAINRVAMEIQHRSHECRGSGRPRPQALLQDPPEPGPCGERRPSTANVTRAHGRIVGGSAAPPGAWPWLVRLQLGGQPLCGGVLVAASWVLTAAHCFVGAPNELLWTVTLAEGSRGEQAEEVPVNRILPHPKFDPRTFHNDLALVQLWTPVSPGGSARPVCLPQEPQEPPAGTACAIAGWGALFEDGPEAEAVREARVPLLSTDTCRRALGPGLRPSTMLCAGYLAGGVDSCQGDSGGPLTCSEPGPRPREVLFGVTSWGDGCGEPGKPGVYTRVAVFKDWLQEQMSASSSREPSCRELLAWDPPQELQADAARLCAFYARLCPGSQGACARLAHQQCLQRRRRCELRSLAHTLLGLLRNAQELLGPRPGLRRLAPALALPAPALRESPLHPARELRLHSGSRAAGTRFPKRRPEPRGEANGCPGLEPLRQKLAALQGAHAWILQVPSEHLAMNFHEVLADLGSKTLTGLFRAWVRAGLGGRHVAFSGLVGLEPATLARSLPRLLVQALQAFRVAALAEGEPEGPWMDVGQGPGLERKGHHPLNPQVPPARQP

Tested on: GFP-14-3-3β
Test: GFP-14-3-3β co-IP with LC-MS/MS, untreated GFP-14-3-3β versus GFP control (14-3-3 interactome)
Format: binding, human
Conditions: untreated vs GFP; label-free quantification
Protocol: (§1) HeLa Kyoto cells expressing transiently transfected pEGFP(C1)-14-3-3β or pEGFP(C1) control plasmid, were incubated with 20 nM Calyculin A (# 9902 S, Cell Signaling Technology) for 12 min. Cells were washed twice on ice with cold PBS and after addition of 500 µL lysis buffer (100 mM NaCl, 10 mM Tris, 0.1% IGEPAL, 1 mM EDTA, 1 mM EGTA, 20 nM Calyculin A, 1x cOmplete Mini protease inhibitor cocktail (Sigma), 1 mM DTT, 1 mM MnCl2) cells were scraped from plates, lysed by 10 pushes through an injection needle (21 G, BD) and the insoluble fraction was pelleted by centrifugation (10 min, 10^4 rcf, 4 °C). Supernatants were then subjected to incubation with 1 µM recombinant phosphatase or buffer for 1 h at 30 °C. Next, we subjected samples to immunoprecipitation using α-GFP nanobodies covalently coupled to agarose beads (2 h, 4 °C, obtained from the EMBL PEPcore Core Facility). Beads were then washed three times with lysis buffer and samples were eluted in 1x LDS sample buffer (Thermo Fisher Scientific) by heating to 70 °C for 10 min.
(§2) The samples were then reduced with 25 mM dithiothreitol (10 min at 70 °C) and alkylated with 55 mM chloroacetamide (room temperature, 30 min, in the dark). Proteins were run on a precast 4–12% NuPAGE gel (ThermoFisher Scientific) for about 1 cm to concentrate the sample prior to in-gel tryptic digestion, which was performed according to the standard procedures. The peptides obtained were dried to completeness and resuspended in 12 µL of buffer A (0.1% FA), and 5 µL of sample were injected per MS measurement. The experiment was carried out in three independent replicates.
(§3) The samples were analyzed by LC-MS/MS on a Dionex Ultimate 3000 nano-HPLC coupled online to a Fusion Lumos Tribrid mass spectrometer (Thermo Fisher Scientific). Peptides were delivered to a trap column (75 µm × 2 cm, packed in-house with 5 µm C18 resin; Reprosil PUR AQ, Dr. Maisch) and washed using 0.1% FA at a flow rate of 5 µL/min for 10 min. Subsequently, peptides were transferred to an analytical column (75 µm × 45 cm, packed in-house with 3 µm C18 resin; Reprosil Gold) applying a flow rate of 300 nL/min and separated using a 60 min linear gradient from 4% to 32% LC solvent B (0.1% FA, 5% DMSO in ACN) in LC solvent A (0.1% FA in 5% DMSO). The eluate from the analytical column was sprayed via a stainless steel emitter (Thermo Fisher Scientific) at a source voltage of 2.1 kV into the mass spectrometer. The transfer capillary was heated to 275 °C. The Fusion Lumos was operated in positive ionization mode and data-dependent acquisition (DDA), automatically switching between MS1 and MS2 spectrum acquisition. Full scan MS1 spectra were recorded in the Orbitrap from 360 to 1300 m/z at a resolution of 60k (automatic gain control (AGC) target value of 4e5 charges, maximum injection time (maxIT) of 50 ms). Up to 20 peptide precursors were isolated (isolation window, 1.7 m/z; maximum injection time, 25 ms; and AGC value, 1e5), fragmented by high-energy collision-induced dissociation (HCD) using 30% normalized collision energy (NCE), and analyzed at a resolution of 15k in the Orbitrap. Precursor ions that were singly charged, unassigned, or with charge states >6+ were excluded. The dynamic exclusion duration of fragmented precursor ions was 20 s.
(§4) Peptide and protein identification and LFQ were performed using MaxQuant software (version 1.6.1.0)[64] by searching the data against all canonical protein sequences as annotated in the Swissprot reference database (human proteins only, 20193 entries, downloaded 22 March 2016, internally annotated with PFAM domains) using the embedded search engine Andromeda[65]. The MaxQuant search was performed using two variable modifications; oxidation of methionine and N-terminal protein acetylation. Carbamidomethylation on cysteines was specified as a fixed modification. Trypsin (Trypsin/P) was specified as the proteolytic enzyme with up to two allowed missed cleavage sites.

| Molecule | Difference (log2), untreated vs GFP [log2] |
| --- | --- |
| B1 | 0.5977 |
| B2 | -0.001907 |
| B3 | -0.8224 |
| B4 | -0.3869 |
| B5 | 0.8571 |
| B6 | -0.4107 |

Tested on: GFP-14-3-3β and its binding proteins
Test: GFP-14-3-3β co-IP with LC-MS/MS label-free quantification, untreated versus PP1c-treated
Design: species or system human
Conditions: PP1 vs untreated; label-free quantification
Protocol: as §1, §2, §3, §4

| Difference (log2), PP1 vs untreated [log2] | Molecule |
| --- | --- |
| 1.221 | B1 |
| 1.197 | B2 |
| 1.224 | B3 |
| 1.256 | B4 |
| 1.211 | B5 |
| 1.257 | B6 |
